Target: SARS-CoV-2 nucleocapsid protein N:G215C mutant (SARS-CoV-2) (UniProt P0DTC9)
Assay: AUC

SARS-CoV-2 nucleocapsid protein N:G215C mutant (from UniProt P0DTC9 1-419) (natural protein)
Kd: 3.3 µM
